# System: Escherichia coli TOP10
# Test: shrunken log2 fold change of peptide-encoding DNA abundance (4.5 h post-induction vs induction); higher = less antimicrobial activity (less host growth inhibition)
# Conditions: time post-induction: 4.5 h; library: site-saturation at positions 5, 18, 19, 20
# 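Note: peptides expressed intracellularly from a pBAD plasmid library in pooled LB shake-flask culture, induced with 0.3% L-arabinose, DNA abundance read by NGS, three biological replicates, DESeq2 with apeglm shrinkage.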
row,Sequence,shrunken log2 fold change
1,RRIRRRPPRLPRPRPRPWDEPRP,0.0108
2,RRIRRRPPRLPRPRPRPWDTPRP,-0.139
3,RRIRRRPPRLPRPRPRPWFGPRP,-0.161
4,RRIRRRPPRLPRPRPRPWGSPRP,-0.186
5,RRIRRRPPRLPRPRPRPWIGPRP,0.0943
6,RRIRRRPPRLPRPRPRPWIVPRP,3
7,RRIRRRPPRLPRPRPRPWIWPRP,-0.282
8,RRIRRRPPRLPRPRPRPWMNPRP,-0.0882
9,RRIRRRPPRLPRPRPRPWNFPRP,-0.0355
10,RRIRRRPPRLPRPRPRPWSIPRP,0.0651
11,RRIRRRPPRLPRPRPRPWTAPRP,-0.106
12,RRIRRRPPRLPRPRPRPWTPPRP,0.568
13,RRIRRRPPRLPRPRPRPWVQPRP,0.25
14,RRIRRRPPRLPRPRPRPWVWPRP,0.00495
15,RRIRRRPPRLPRPRPRPWWFPRP,-0.378
16,RRIRRRPPRLPRPRPRPWWWPRP,0.184
17,RRIRRRPPRLPRPRPRPWYLPRP,-0.313
18,RRIRRRPPRLPRPRPRPWYMPRP,-0.0284
19,RRIRRRPPRLPRPRPRPWYSPRP,-0.0705
20,RRIRRRPPRLPRPRPRPYAKPRP,0.106
21,RRIRRRPPRLPRPRPRPYAMPRP,-0.121
22,RRIRRRPPRLPRPRPRPYCNPRP,-0.834
23,RRIRRRPPRLPRPRPRPYFTPRP,-0.432
24,RRIRRRPPRLPRPRPRPYGGPRP,-0.326
25,RRIRRRPPRLPRPRPRPYGMPRP,-0.242

row,Sequence,shrunken log2 fold change
1,RRIRRRPPRLPRPRPRPYGRPRP,-0.0338
2,RRIRRRPPRLPRPRPRPYIKPRP,-0.509
3,RRIRRRPPRLPRPRPRPYKVPRP,-0.193
4,RRIRRRPPRLPRPRPRPYLVPRP,-0.0711
5,RRIRRRPPRLPRPRPRPYMWPRP,-0.374
6,RRIRRRPPRLPRPRPRPYNTPRP,-0.436
7,RRIRRRPPRLPRPRPRPYNYPRP,-0.501
8,RRIRRRPPRLPRPRPRPYPMPRP,-0.187
9,RRIRRRPPRLPRPRPRPYQKPRP,-0.458
10,RRIRRRPPRLPRPRPRPYRHPRP,-0.265
11,RRIRRRPPRLPRPRPRPYRIPRP,-0.594
12,RRIRRRPPRLPRPRPRPYSHPRP,-0.528
13,RRIRRRPPRLPRPRPRPYTNPRP,-0.95
14,RRIRRRPPRLPRPRPRPYTSPRP,-0.313
15,RRIRRRPPRLPRPRPRPYVDPRP,-0.102
16,RRIRRRPPRLPRPRPRPYWEPRP,0.0331
17,RRIRRRPPRLPRPRPRPYWFPRP,-0.299
18,RRIRRRPPRLPRPRPRPYWSPRP,-0.353
19,RRIRRRPPRLPRPRPRPYWYPRP,-0.423
20,RRIRSRPPRLPRPRPRPAEEPRP,0.164
21,RRIRSRPPRLPRPRPRPAFDPRP,1.02
22,RRIRSRPPRLPRPRPRPAFVPRP,0.577
23,RRIRSRPPRLPRPRPRPAICPRP,0.147
24,RRIRSRPPRLPRPRPRPAIKPRP,-0.352
25,RRIRSRPPRLPRPRPRPAKGPRP,0.176

row,Sequence,shrunken log2 fold change
1,RRIRSRPPRLPRPRPRPAKIPRP,-0.0773
2,RRIRSRPPRLPRPRPRPALEPRP,0.407
3,RRIRSRPPRLPRPRPRPAMHPRP,-0.0199
4,RRIRSRPPRLPRPRPRPAPPPRP,0.458
5,RRIRSRPPRLPRPRPRPAPVPRP,0.269
6,RRIRSRPPRLPRPRPRPARKPRP,0.213
7,RRIRSRPPRLPRPRPRPARLPRP,0.0986
8,RRIRSRPPRLPRPRPRPASTPRP,-0.16
9,RRIRSRPPRLPRPRPRPASYPRP,0.102
10,RRIRSRPPRLPRPRPRPATVPRP,-0.15
11,RRIRSRPPRLPRPRPRPAVFPRP,0.114
12,RRIRSRPPRLPRPRPRPAVNPRP,0.0811
13,RRIRSRPPRLPRPRPRPAYHPRP,-0.1
14,RRIRSRPPRLPRPRPRPAYIPRP,-0.0884
15,RRIRSRPPRLPRPRPRPCAKPRP,0.0351
16,RRIRSRPPRLPRPRPRPCCHPRP,-0.0953
17,RRIRSRPPRLPRPRPRPCCIPRP,-0.197
18,RRIRSRPPRLPRPRPRPCEGPRP,-0.00992
19,RRIRSRPPRLPRPRPRPCEYPRP,0.0232
20,RRIRSRPPRLPRPRPRPCGNPRP,0.1
21,RRIRSRPPRLPRPRPRPCIKPRP,-0.0801
22,RRIRSRPPRLPRPRPRPCIVPRP,-1.05
23,RRIRSRPPRLPRPRPRPCLPPRP,-0.133
24,RRIRSRPPRLPRPRPRPCLSPRP,-0.000866
25,RRIRSRPPRLPRPRPRPCMNPRP,-0.206

row,Sequence,shrunken log2 fold change
1,RRIRSRPPRLPRPRPRPCMSPRP,-0.348
2,RRIRSRPPRLPRPRPRPCMVPRP,-0.511
3,RRIRSRPPRLPRPRPRPCNKPRP,-0.225
4,RRIRSRPPRLPRPRPRPCSCPRP,0.000754
5,RRIRSRPPRLPRPRPRPCSIPRP,-0.153
6,RRIRSRPPRLPRPRPRPCVHPRP,-0.471
7,RRIRSRPPRLPRPRPRPCWQPRP,-0.00872
8,RRIRSRPPRLPRPRPRPCWSPRP,0.0886
9,RRIRSRPPRLPRPRPRPCYEPRP,-0.167
10,RRIRSRPPRLPRPRPRPCYSPRP,-0.839
11,RRIRSRPPRLPRPRPRPDAAPRP,1.05
12,RRIRSRPPRLPRPRPRPDCFPRP,0.103
13,RRIRSRPPRLPRPRPRPDCVPRP,-0.0759
14,RRIRSRPPRLPRPRPRPDDAPRP,0.162
15,RRIRSRPPRLPRPRPRPDDMPRP,0.0939
16,RRIRSRPPRLPRPRPRPDECPRP,0.0932
17,RRIRSRPPRLPRPRPRPDFCPRP,0.0315
18,RRIRSRPPRLPRPRPRPDFYPRP,-0.0521
19,RRIRSRPPRLPRPRPRPDGAPRP,0.289
20,RRIRSRPPRLPRPRPRPDGYPRP,-0.164
21,RRIRSRPPRLPRPRPRPDIQPRP,-0.274
22,RRIRSRPPRLPRPRPRPDKEPRP,0.0247
23,RRIRSRPPRLPRPRPRPDKWPRP,0.858
24,RRIRSRPPRLPRPRPRPDLYPRP,-0.171
25,RRIRSRPPRLPRPRPRPDMSPRP,-0.0189

row,Sequence,shrunken log2 fold change
1,RRIRSRPPRLPRPRPRPDMVPRP,-0.00858
2,RRIRSRPPRLPRPRPRPDPFPRP,-0.214
3,RRIRSRPPRLPRPRPRPDQLPRP,-0.167
4,RRIRSRPPRLPRPRPRPDQWPRP,-0.0262
5,RRIRSRPPRLPRPRPRPDSWPRP,0.0247
6,RRIRSRPPRLPRPRPRPDVNPRP,0.0672
7,RRIRSRPPRLPRPRPRPDVRPRP,0.0647
8,RRIRSRPPRLPRPRPRPDYVPRP,0.063
9,RRIRSRPPRLPRPRPRPEANPRP,0.542
10,RRIRSRPPRLPRPRPRPECLPRP,0.18
11,RRIRSRPPRLPRPRPRPECRPRP,0.266
12,RRIRSRPPRLPRPRPRPEDRPRP,0.972
13,RRIRSRPPRLPRPRPRPEDYPRP,-0.00134
14,RRIRSRPPRLPRPRPRPEEAPRP,0.983
15,RRIRSRPPRLPRPRPRPEECPRP,0.251
16,RRIRSRPPRLPRPRPRPEFFPRP,-0.0464
17,RRIRSRPPRLPRPRPRPEGRPRP,-0.0898
18,RRIRSRPPRLPRPRPRPEGVPRP,0.552
19,RRIRSRPPRLPRPRPRPEHWPRP,0.422
20,RRIRSRPPRLPRPRPRPEKEPRP,0.00748
21,RRIRSRPPRLPRPRPRPEKPPRP,0.014
22,RRIRSRPPRLPRPRPRPEKYPRP,-1.28
23,RRIRSRPPRLPRPRPRPELKPRP,-0.0512
24,RRIRSRPPRLPRPRPRPEMCPRP,-0.104
25,RRIRSRPPRLPRPRPRPEMTPRP,-0.0333

row,Sequence,shrunken log2 fold change
1,RRIRSRPPRLPRPRPRPEPDPRP,0.953
2,RRIRSRPPRLPRPRPRPEPEPRP,0.102
3,RRIRSRPPRLPRPRPRPEPKPRP,0.954
4,RRIRSRPPRLPRPRPRPEPQPRP,0.397
5,RRIRSRPPRLPRPRPRPERAPRP,0.399
6,RRIRSRPPRLPRPRPRPERCPRP,0.0123
7,RRIRSRPPRLPRPRPRPERLPRP,0.131
8,RRIRSRPPRLPRPRPRPEVNPRP,0.426
9,RRIRSRPPRLPRPRPRPEWWPRP,0.0594
10,RRIRSRPPRLPRPRPRPEYAPRP,0.496
11,RRIRSRPPRLPRPRPRPEYKPRP,0.0361
12,RRIRSRPPRLPRPRPRPEYWPRP,0.191
13,RRIRSRPPRLPRPRPRPFAAPRP,0.355
14,RRIRSRPPRLPRPRPRPFCNPRP,-0.106
15,RRIRSRPPRLPRPRPRPFCYPRP,-0.528
16,RRIRSRPPRLPRPRPRPFDHPRP,-0.488
17,RRIRSRPPRLPRPRPRPFDYPRP,-0.0792
18,RRIRSRPPRLPRPRPRPFEHPRP,-0.0715
19,RRIRSRPPRLPRPRPRPFFGPRP,0.148
20,RRIRSRPPRLPRPRPRPFFLPRP,-0.16
21,RRIRSRPPRLPRPRPRPFISPRP,-0.152
22,RRIRSRPPRLPRPRPRPFIWPRP,-0.297
23,RRIRSRPPRLPRPRPRPFIYPRP,-0.82
24,RRIRSRPPRLPRPRPRPFKPPRP,-0.297
25,RRIRSRPPRLPRPRPRPFLRPRP,-0.0915
